Test results: patent US20190359711A1 (Janssen / Centocor, published 2019)

T1: rh-CD19 (UniProt P15391 20-291, limits assumed)
T1 construct: 'rh-' is not explained
T1 sequence (looked up): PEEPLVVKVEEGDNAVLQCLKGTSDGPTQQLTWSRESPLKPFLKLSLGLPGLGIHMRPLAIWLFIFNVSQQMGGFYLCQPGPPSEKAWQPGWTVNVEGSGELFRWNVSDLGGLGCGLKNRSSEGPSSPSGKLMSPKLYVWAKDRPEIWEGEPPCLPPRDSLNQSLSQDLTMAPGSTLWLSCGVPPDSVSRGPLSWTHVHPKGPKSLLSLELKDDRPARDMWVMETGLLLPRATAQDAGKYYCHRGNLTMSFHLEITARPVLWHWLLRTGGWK

T2: B-Defensin-3 (Homo sapiens (Human), UniProt P81534 23-67, not fully specified)
T2 construct: also called β-defensin
T2 peptide: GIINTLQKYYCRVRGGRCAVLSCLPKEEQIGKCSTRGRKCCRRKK

B1: CD3B376 (antibody, V domains shown)
VH: QVQLQQSGPRLVRPSQTLSLTCAISGDSVFNNNAAWSWIRQSPSRGLEWLGRTYYRSKWLYDYAVSVKSRITVNPDTSRNQFTLQLNSVTPEDTALYYCARGYSSSFDYWGQGTLVTVSS
VL: QSALTQPASVSGSPGQSITISCTGTSSNIGTYKFVSWYQQHPDKAPKVLLYEVSKRPSGVSSRFSGSKSGNTASLTISGLQAEDQADYHCVSYAGSGTLLFGGGTKLTVLG
notes: HC is IgG4 S228P, F234A, L235A, F405L, R409K; also called anti-CD3 antibody; bivalent CD3B376
B2: TMCB150 (bispecific antibody, human IgG4 S228P, kappa, lambda, F234A L235A)
heavy 1: not shown
light 1: not shown
heavy 2: QVQLQQSGPRLVRPSQTLSLTCAISGDSVFNNNAAWSWIRQSPSRGLEWLGRTYYRSKWLYDYAVSVKSRITVNPDTSRNQFTLQLNSVTPEDTALYYCARGYSSSFDYWGQGTLVTVSSASTKGPSVFPLAPCSRSTSESTAALGCLVKDYFPEPVTVSWNSGALTSGVHTFPAVLQSSGLYSLSSVVTVPSSSLGTKTYTCNVDHKPSNTKVDKRVESKYGPPCPPCPAPEAAGGPSVFLFPPKPKDTLMISRTPEVTCVVVDVSQEDPEVQFNWYVDGVEVHNAKTKPREEQFNSTYRVVSVLTVLHQDWLNGKEYKCKVSNKGLPSSIEKTISKAKGQPREPQVYTLPPSQEEMTKNQVSLTCLVKGFYPSDIAVEWESNGQPENNYKTTPPVLDSDGSFLLYSKLTVDKSRWQEGNVFSCSVMHEALHNHYTQKSLSLSLGK
light 2: QSALTQPASVSGSPGQSITISCTGTSSNIGTYKFVSWYQQHPDKAPKVLLYEVSKRPSGVSSRFSGSKSGNTASLTISGLQAEDQADYHCVSYAGSGTLLFGGGTKLTVLGQPKAAPSVTLFPPSSEELQANKATLVCLISDFYPGAVTVAWKADSSPVKAGVETTTPSKQSNNKYAASSYLSLTPEQWKSHRSYSCQVTHEGSTVEKTVAPTECS
notes: made by Fab arm exchange of the parental IgG4PAA mAbs, so the chains are those of TMEB762 (HC 91, LC 92) and CD3B376 (HC 78, LC 79); also called TMEB762xCD3B376; bispecific anti-TMEFF2/CD3 antibody
B3: TMEB762 (antibody, human IgG4 S228P, kappa, F234A L235A, V domains shown)
VH: EVQLLESGGGLVQPGGSLRLSCAASGFTFSSYSMSWVRQAPGKGLEWVSVISGSGGFTDYADSVKGRFTISRDNSKNTLYLQMNSLRAEDTAVYYCARMPLNSPHDYWGQGTLVTVSS
VL: DIQMTQSPSSLSASVGDRVTITCRASQGIRNDLGWYQQKPGKAPKLLIYAASSLQSGVPSRFSGSGSGTDFTLTISSLQPEDFATYYCLQDYNYPLTFGGGTKVEIKR
notes: IgG4PAA; re-engineered variant of TMEB675 (HC R14P, P20L, H81Q; LC A1D, A91P, Kabat); Bivalent TMEFF2 parent of TMCB150; also called anti-TMEFF2 antibody; VH TMEH459

Columns and labels:
[1] = target: T1, rh-CD19; experiment: SPR (Biacore 8K), antibody passed over immobilized protein
Description: (§1) Non-specific binding of the lead molecule to unrelated surfaces is determined by biosensor technology (Biacore 8K). Antibody is passed over SPR surfaces coated with unrelated proteins. […] Lead molecule is tested at the final concentration of 1 μM. Irrelevant surfaces include negatively charged protein (Soy Trypsin Inhibitor), positively charged protein (Lysozyme and β-defensin), hydrophobic (Rh-integrin a4b7), human IgG, sticky protein (Rh-CD19). Proper controls are used in this experiment. Lead is flown over two surfaces, one is a blank and the other has a molecule directly immobilized. The response unit (RU) level is determined by subtracting the blank RU from the test surface RU. The RU of TMCB150 and the parental mAbs are given below in the table. A response unit ≥100 predicts high risks for non-specific binding to charged/hydrophobic/IgG surfaces which would create challenges during manufacturing and translate to poor PK properties. None of the antibodies show non-specific binding to irrelevant surfaces predicting low to no risks for manufacturing and in-vivo behavior.

[2] = target: T2, B-Defensin-3; experiment: as above
Description: as §1

[3] = target: T3, rh-Integrin a4b7 (UniProt P13612 34-977; P26010 20-723); experiment: as above
T3 construct: 'rh-' is not explained
Description: as §1

[4] = target: T4, Soy Trypsin Inhibitor (soy); experiment: SPR (Biacore 8K), 1 µM antibody over immobilized protein, blank subtracted
T4 construct: also called STI
Description: as §1

[5] = target: T1, rh-CD19; experiment: as above
Description: as §1

[6] = target: Lysozyme; experiment: as above
Description: as §1

[7] = target: T2, B-Defensin-3; experiment: as above
Description: as §1

[8] = target: Human IgG; experiment: as above
Description: as §1

[9] = target: T3, rh-Integrin a4b7; experiment: as above
Description: as §1

Lysozyme, sequence (P00698 19-147): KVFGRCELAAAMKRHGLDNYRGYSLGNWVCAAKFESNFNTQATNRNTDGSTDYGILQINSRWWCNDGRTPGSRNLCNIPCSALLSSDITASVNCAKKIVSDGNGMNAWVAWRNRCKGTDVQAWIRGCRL
T3 sequence (P13612 34-977, chain 1 of 2): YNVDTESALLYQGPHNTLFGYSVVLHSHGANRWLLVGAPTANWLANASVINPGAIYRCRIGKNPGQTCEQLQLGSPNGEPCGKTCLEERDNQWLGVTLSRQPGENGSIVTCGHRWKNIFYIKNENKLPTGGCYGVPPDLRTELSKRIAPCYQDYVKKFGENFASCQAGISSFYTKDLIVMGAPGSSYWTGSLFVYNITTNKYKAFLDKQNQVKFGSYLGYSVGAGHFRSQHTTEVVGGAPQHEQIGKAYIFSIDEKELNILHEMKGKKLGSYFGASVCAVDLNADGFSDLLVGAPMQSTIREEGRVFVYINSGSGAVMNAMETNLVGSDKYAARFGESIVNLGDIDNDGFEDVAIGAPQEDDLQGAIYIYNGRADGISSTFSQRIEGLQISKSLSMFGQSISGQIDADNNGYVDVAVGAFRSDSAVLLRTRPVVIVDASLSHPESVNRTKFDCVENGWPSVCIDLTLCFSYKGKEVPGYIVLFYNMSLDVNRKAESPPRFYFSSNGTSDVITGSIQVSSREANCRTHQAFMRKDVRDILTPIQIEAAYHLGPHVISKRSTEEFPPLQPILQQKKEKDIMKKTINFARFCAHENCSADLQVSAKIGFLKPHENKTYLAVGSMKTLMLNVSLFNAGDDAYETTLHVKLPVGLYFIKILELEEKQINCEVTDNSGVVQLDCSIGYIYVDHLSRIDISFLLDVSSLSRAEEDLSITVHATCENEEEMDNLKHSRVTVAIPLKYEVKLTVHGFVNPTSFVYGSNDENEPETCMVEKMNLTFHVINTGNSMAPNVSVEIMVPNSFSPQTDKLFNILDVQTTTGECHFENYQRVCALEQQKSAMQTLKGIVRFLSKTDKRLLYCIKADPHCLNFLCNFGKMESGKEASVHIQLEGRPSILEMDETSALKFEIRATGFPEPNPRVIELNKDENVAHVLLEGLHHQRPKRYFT
T3 sequence (P26010 20-723, chain 2 of 2): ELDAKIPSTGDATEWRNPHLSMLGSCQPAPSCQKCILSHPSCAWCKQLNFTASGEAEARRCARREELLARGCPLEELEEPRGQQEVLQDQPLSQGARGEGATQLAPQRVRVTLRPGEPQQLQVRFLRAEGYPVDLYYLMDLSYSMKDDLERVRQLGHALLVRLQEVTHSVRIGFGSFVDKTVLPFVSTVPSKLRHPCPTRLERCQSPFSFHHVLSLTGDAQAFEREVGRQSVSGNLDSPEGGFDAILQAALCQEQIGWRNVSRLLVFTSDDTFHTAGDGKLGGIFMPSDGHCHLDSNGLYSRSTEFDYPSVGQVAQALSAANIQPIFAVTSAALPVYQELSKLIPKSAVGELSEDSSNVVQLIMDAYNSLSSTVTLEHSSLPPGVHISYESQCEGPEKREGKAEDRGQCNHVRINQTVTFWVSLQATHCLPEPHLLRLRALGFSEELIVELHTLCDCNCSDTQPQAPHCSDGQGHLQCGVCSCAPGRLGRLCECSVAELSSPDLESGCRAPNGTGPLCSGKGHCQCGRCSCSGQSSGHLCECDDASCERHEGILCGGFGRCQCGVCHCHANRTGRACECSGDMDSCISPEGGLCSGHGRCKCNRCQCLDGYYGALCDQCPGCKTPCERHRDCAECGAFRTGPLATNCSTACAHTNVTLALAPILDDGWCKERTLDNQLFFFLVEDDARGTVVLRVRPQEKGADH
T4 sequence (P01070 25-205): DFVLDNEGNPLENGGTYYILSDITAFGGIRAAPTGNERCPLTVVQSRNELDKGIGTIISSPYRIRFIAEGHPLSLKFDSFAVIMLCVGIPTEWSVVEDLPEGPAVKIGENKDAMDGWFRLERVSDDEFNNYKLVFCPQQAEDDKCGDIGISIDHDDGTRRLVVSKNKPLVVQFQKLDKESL

Binder	binding result [1]	binding result [2]	binding result [3]	response unit (RU) [4] [RU]	response unit (RU) [5] [RU]	response unit (RU) [6] [RU]	response unit (RU) [7] [RU]	response unit (RU) [8] [RU]	response unit (RU) [9] [RU]
B1	no binding	no binding	no binding	19.5	0	0.2	3.1	0.4	0
B2	no binding	no binding	no binding	1.6	3.4	4.2	6.4	7.5	0
B3	no binding	no binding	no binding	0	3.3	4.6	4.1	8.4	0
